Data from the supplement of paper PMC10567573.

Experiment: protein stability index of a GFP-peptide fusion (GPS, HEK-293T) (PSI 1-6); higher = more stable
Details: c terminus: a fixed tail appended
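Also: lentivirally expressed fusions sorted by FACS into six bins by GFP to DsRed ratio, PSI derived from sequencing read proportions per bin multiplied by bin number.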

Protein: MAGCRGSLCCCCRWCCCCGERETR
- protein stability index (parent: IOH52910_1): 1.87

Protein: YSSGEFSSGRKWGDDAPKEEVDTG
- protein stability index (parent: IOH53018_58): 2.34

Protein: FATASAAVPVSTSKPSSDLLDLQP
- protein stability index (parent: IOH52952_56): 3.71

Protein: YVHHQALLDVKNIAHQNKFGEDMP
- protein stability index (parent: IOH53646_199): 2

Protein: CAVLDDSIYLVGGYSWSMGAYKSS [KLHL14 WT]
- protein stability index (parent: IOH52486_95): 2.2

Protein: QYMNEGELRVLADTYDSVYLHPNS
- protein stability index (parent: IOH53646_27): 1.87

Protein: SERPLEDLRLRLDHLGWVARGTGS [RTN2 WT]
- protein stability index (parent: IOH53506_23): 2.32

Protein: TGLVGLFVDFFVRLFTQLKFGVVQ
- protein stability index (parent: IOH52910_16): 2.3

Protein: FQSISLRKIQFNFPYFRSDRDKRD
- protein stability index (parent: IOH52910_37): 1.87

Protein: IRLVDDAFGKICHMVSDGSWVVRV
- protein stability index (parent: IOH53018_47): 3.03

Protein: YHIYVALEEEIERNKESPVFAPVY [HMOX1 WT]
- protein stability index (parent: IOH54938_10): 2.02

Protein: KMKTRELHRESSNFDSIYICPSTF
- protein stability index (parent: IOH53646_93): 2.14

Protein: DLMETTQYMNEGELRVLADTYDSV
- protein stability index (parent: IOH53646_26): 2.05

Protein: YQSFVQFLQYYYQSGCLYRLRALG [TMEM120A WT]
- protein stability index (parent: IOH55078_39): 2.71

Protein: FSTDAFSSPPQGASPVPESSLTAD
- protein stability index (parent: IOH52952_99): 3.2

Protein: LLKHPNIVRLHDSISEEGFHYLVF
- protein stability index (parent: IOH54032_12): 2.28

Protein: VKGCSMYVALFPCNECAKLIIQAG [DCTD WT]
- protein stability index (parent: IOH54732_19): 2.63

Protein: AKQIMEETYKMEFMYSGVENKQVV
- protein stability index (parent: IOH53018_117): 1.69

Protein: FGGSFMAPSPSPVTPAQNNLLQPN
- protein stability index (parent: IOH52952_113): 1.96

Protein: ILRSQLVTLLVRGVCYSESQSSAS
- protein stability index (parent: IOH52910_125): 2.67

Protein: VGEIVGIITRHNLTYEFLQARLRQ
- protein stability index (parent: IOH52910_141): 2.41

Protein: FAQPMMRPPFGAAAVPGTQLSPSP
- protein stability index (parent: IOH52952_144): 3.08

Protein: IVRLHDSISEEGFHYLVFDLVTGG
- protein stability index (parent: IOH54032_13): 2.65

Protein: TIIEPAGESDNPLRFTSGLVVALD
- protein stability index (parent: IOH53018_138): 2.83

Protein: ACAQLATGAACRLVEAVLSGEVLN
- protein stability index (parent: IOH53646_97): 2.94

Protein: FAAPSPATTASPAKVDSSGVIDLF
- protein stability index (parent: IOH52952_104): 2.35

Protein: QEGLLDRCVSFQARFAEKEELMLV
- protein stability index (parent: IOH53646_21): 1.78
